Data published in patent US10428140B2, “Anti-EphA4 antibody” (EISAI R&D MANAGEMENT CO., LTD., priority 2015, dated 2019).

T1: human EphA3 (Homo sapiens, UniProt P29320)
T1 construct: a protein of the extracellular region of each human Eph receptor fused with the SEAP protein and the His tag; made in house; host or cells: Expi293F cells (culture supernatant)
T1 sequence (P29320 21-541 limits assumed): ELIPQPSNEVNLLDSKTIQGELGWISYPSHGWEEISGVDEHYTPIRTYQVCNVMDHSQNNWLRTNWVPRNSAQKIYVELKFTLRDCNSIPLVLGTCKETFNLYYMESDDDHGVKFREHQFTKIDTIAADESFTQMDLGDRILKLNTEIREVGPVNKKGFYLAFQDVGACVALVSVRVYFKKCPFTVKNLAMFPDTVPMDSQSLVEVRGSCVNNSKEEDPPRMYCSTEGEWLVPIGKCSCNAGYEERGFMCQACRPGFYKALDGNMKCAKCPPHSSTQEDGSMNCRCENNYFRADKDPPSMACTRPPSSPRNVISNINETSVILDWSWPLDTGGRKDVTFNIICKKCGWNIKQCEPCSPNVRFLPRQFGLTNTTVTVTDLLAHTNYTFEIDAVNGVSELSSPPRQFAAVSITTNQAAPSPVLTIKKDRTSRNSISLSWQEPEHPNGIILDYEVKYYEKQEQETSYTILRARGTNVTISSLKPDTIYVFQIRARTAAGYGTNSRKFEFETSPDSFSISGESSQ

T2: human EphB4 (Homo sapiens, UniProt P54760)
T2 construct: a protein of the extracellular region of each human Eph receptor fused with the SEAP protein and the His tag; made in house; host or cells: Expi293F cells
T2 sequence (P54760 16-539 limits assumed): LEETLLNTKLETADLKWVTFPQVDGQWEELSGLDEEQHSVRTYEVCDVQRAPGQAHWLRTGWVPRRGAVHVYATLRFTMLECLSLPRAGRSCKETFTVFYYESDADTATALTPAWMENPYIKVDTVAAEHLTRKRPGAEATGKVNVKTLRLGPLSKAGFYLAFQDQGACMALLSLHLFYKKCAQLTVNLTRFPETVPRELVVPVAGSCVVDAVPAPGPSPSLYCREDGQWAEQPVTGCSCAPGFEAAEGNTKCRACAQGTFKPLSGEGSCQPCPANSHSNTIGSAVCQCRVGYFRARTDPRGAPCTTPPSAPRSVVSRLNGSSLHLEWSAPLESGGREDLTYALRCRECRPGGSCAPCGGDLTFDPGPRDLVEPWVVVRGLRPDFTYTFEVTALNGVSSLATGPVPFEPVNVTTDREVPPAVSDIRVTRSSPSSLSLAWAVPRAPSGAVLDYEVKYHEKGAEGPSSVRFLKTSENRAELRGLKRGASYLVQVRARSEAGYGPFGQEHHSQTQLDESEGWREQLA

T3: human EphA10 (Homo sapiens, UniProt Q5JZY3)
T3 construct: a protein of the extracellular region of each human Eph receptor fused with the SEAP protein and the His tag; made in house; host or cells: Expi293F cells (culture supernatant)
T3 sequence (Q5JZY3 34-565 limits assumed): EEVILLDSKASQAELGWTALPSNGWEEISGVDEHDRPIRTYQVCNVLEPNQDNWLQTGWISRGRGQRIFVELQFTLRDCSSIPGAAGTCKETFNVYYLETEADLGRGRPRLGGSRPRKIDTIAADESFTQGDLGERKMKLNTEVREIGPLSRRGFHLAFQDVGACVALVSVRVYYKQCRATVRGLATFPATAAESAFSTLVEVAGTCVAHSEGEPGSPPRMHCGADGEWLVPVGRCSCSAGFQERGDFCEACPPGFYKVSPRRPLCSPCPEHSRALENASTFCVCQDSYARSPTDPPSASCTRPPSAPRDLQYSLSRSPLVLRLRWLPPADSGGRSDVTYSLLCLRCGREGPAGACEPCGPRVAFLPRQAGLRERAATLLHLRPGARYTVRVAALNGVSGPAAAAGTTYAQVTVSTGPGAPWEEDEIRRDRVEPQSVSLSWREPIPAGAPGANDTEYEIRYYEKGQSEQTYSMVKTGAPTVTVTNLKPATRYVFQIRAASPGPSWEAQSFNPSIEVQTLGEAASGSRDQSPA


Experiments:
Assay in all cases: Selectivity ELISA of humanized antibodies for human Eph receptor
Type in all cases: binding
human EphA3 = biological target: T1, human EphA3; details: coated protein 1 nM
How it was run: (§1)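 His-tagged SEAP fusions of each human Eph receptor extracellular region, from Expi293F supernatants, were captured at 1 nM on anti-His-coated wells. Humanized antibody was bound 1 h at room temperature, then detected with HRP […] IgG. TMB development was acid-stopped and read at 450 nm.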

human EphA4 = biological target: T4, human EphA4 (Homo sapiens, UniProt P54764); details: coated protein 1 nM; reference set to 100%
T4 construct: made in house; not restated for the human SEAP-His protein
T4 sequence (P54764 20-547): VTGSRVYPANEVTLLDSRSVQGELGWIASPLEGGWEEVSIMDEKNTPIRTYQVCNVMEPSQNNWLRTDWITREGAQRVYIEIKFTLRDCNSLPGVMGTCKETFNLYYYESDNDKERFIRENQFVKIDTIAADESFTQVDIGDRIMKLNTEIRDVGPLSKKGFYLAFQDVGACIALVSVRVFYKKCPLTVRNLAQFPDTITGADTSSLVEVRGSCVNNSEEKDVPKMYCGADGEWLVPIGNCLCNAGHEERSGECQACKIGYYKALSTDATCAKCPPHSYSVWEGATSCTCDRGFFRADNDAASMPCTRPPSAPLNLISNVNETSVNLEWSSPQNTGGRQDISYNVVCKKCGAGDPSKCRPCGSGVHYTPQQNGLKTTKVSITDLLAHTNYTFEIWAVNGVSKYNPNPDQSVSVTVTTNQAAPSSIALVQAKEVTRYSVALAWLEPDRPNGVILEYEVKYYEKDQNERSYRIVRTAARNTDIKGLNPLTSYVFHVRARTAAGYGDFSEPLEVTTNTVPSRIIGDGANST
How it was run: as §1

human EphB4 = biological target: T2, human EphB4; details: coated protein 1 nM
How it was run: as §1

human EphA10 = biological target: T3, human EphA10; details: coated protein 1 nM
How it was run: as §1

Row | hEphA3-SEAP-: absorbance at 450 nm, percentage with respect to hEphA4-SEAP-His as 100% (human EphA3) | hEphA4-SEAP-: absorbance at 450 nm, percentage with respect to hEphA4-SEAP-His as 100% (human EphA4) | hEphB4-SEAP-: absorbance at 450 nm, percentage with respect to hEphA4-SEAP-His as 100% (human EphB4) | hEphA10-SEAP-: absorbance at 450 nm, percentage with respect to hEphA4-SEAP-His as 100% (human EphA10) | Molecule
1 | 5.0% | 100% | 5.1% | 5.1% | 135 (antibody, V domains shown, synthetic humanized antibody heavy chain variable region sequence; synthetic humanized antibody light chain variable region sequence) VH: QVQLVQSGSELKKPGASVKVSCKASGYTFTDYSMHWVRQAPGQGLEWMGWINTETGEPTYADDFKGRFVFSLDTSVSTAYLQISSLKAEDTAVYYCARIPLYYYGSRYWYFDVWGQGTTVTVSS VL: EIVMTQSPATLSVSPGERATLSCRASENIYRNLAWYQQKPGQSPRLLIYAATNLADGIPARFSGSGSGTEYTLTISSLQSEDFAVYYCQHFWGTPWTFGQGTKVEIK
2 | 5.1% | 100% | 5.1% | 5.2% | 78 (antibody, V domains shown, synthetic humanized antibody heavy chain variable region sequence; synthetic humanized antibody light chain variable region sequence) VH: QVQLVQSGSELKKPGASVKVSCKASGYTFTDYSMHWVRQAPGQGLKWMGWINTETGEPTYADDFKGRFVFSLDTSVSTAYLQISSLKAEDTAVYYCARIPLYYYGSRYWYFDVWGQGTTVTVSS VL: DIQMTQSPSSLSASVGDRVTITCRASENIYRNLAWYQQKPGKAPKLLVYAATNLADGVPSRFSGSGSGTDYTLTISSLQPEDFATYYCQHFWGTPWTFGQGTKVEIK
3 | 4.5% | 100% | 4.5% | 4.5% | 77 (antibody, V domains shown, synthetic humanized antibody heavy chain variable region sequence; synthetic humanized antibody light chain variable region sequence) VH: QVQLVQSGSELKKPGASVKVSCKASGYTFTDYSMHWVRQAPGQGLEWMGWINTETGEPTYADDFKGRFVFSLDTSVSTAYLQISSLKAEDTAVYYCARIPLYYYGSRYWYFDVWGQGTTVTVSS VL: DIQMTQSPSSLSASVGDRVTITCRASENIYRNLAWYQQKPGKAPKLLVYAATNLADGVPSRFSGSGSGTDYTLTISSLQPEDFATYYCQHFWGTPWTFGQGTKVEIK
4 | 4.8% | 100% | 4.6% | 4.4% | 75 (antibody, synthetic humanized antibody heavy chain variable region sequence; synthetic humanized antibody light chain variable region sequence; synthetic antibody constant region sequence) VH: QVQLVQSGSELKKPGASVKVSCKASGYTFTDYSMHWVRQAPGQGLEWMGWINTETGEPTYAQGFTGRFVFSLDTSVSTAYLQISSLKAEDTAVYYCARIPLYYYGSRYWYFDVWGQGTTVTVSS VL: DIQMTQSPSSLSASVGDRVTITCRASENIYRNLAWYQQKPGKAPKLLVYAATNLADGVPSRFSGSGSGTDYTLTISSLQPEDFATYYCQHFWGTPWTFGQGTKVEIK ASTKGPSVFPLAPSSKSTSGGTAALGCLVKDYFPEPVTVSWNSGALTSGVHTFPAVLQSSGLYSLSSVVTVPSSSLGTQTYICNVNHKPSNTKVDKRVEPKSCDKTHTCPPCPAPPAAAPSVFLFPPKPKDTLMISRTPEVTCVVVDVSHEDPEVQFNWYVDGVEVHNAKTKPREEQFNSTFRVVSVLTVVHQDWLNGKEYKCKVSNKGLPAPIEKTISKTKGQPREPQVYTLPPSREEMTKNQVSLTCLVKGFYPSDIAVEWESNGQPENNYKTTPPMLDSDGSFFLYSKLTVDKSRWQQGNVFSCSVMHEALHNHYTQKSLSLSPG

More lines, now with the values behind:

Row | Molecule | hEphA3-SEAP-: absorbance at 450 nm, percentage with respect to hEphA4-SEAP-His as 100% (human EphA3) | hEphA4-SEAP-: absorbance at 450 nm, percentage with respect to hEphA4-SEAP-His as 100% (human EphA4) | hEphB4-SEAP-: absorbance at 450 nm, percentage with respect to hEphA4-SEAP-His as 100% (human EphB4) | hEphA10-SEAP-: absorbance at 450 nm, percentage with respect to hEphA4-SEAP-His as 100% (human EphA10)
5 | 67 (antibody, V domains shown, synthetic humanized antibody heavy chain variable region sequence; synthetic humanized antibody light chain variable region sequence) VH: QIQLVQSGSELKKPGASVKVSCKASGYTFTDYSMHWVRQAPGQGLKWMGWINTETGEPTYAQGFTGRFVFSLDTSVSTAYLQISSLKAEDTAVYYCARIPLYYYGSRYWYFDVWGQGTTVTVSS VL: DIQMTQSPSSLSASVGDRVTITCRASENIYRNLAWYQQKPGKAPKLLVYAATNLADGVPSRFSGSGSGTDYTLTISSLQPEDFATYYCQHFWGTPWTFGQGTKVEIK | 4.8% | 100% | 4.9% | 4.6%
6 | 156 (antibody, V domains shown, synthetic humanized antibody heavy chain variable region sequence; synthetic humanized antibody light chain variable region sequence) VH: QIQLVQSGSELKKPGASVKVSCKASGYTFTDYSMHWVRQAPGQGLKWMGWINTETGEPTYAQGFTGRFVFSLDTSVSTAYLQISSLKAEDTAVYYCARIPLYYYGSRYWYFDVWGQGTTVTVSS VL: DIQMTQSPSSLSASVGDRVTITCRASENIYRNLAWYQQKPGKAPQLLLYAATNLADGVPSRFSGSGSGTDYTLTISSLQPEDFATYYCQHFWGTPWTFGQGTKVEIK | 5.7% | 100% | 5.6% | 5.3%
7 | 76 (antibody, V domains shown, synthetic humanized antibody heavy chain variable region sequence; synthetic humanized antibody light chain variable region sequence) VH: QVQLVQSGSELKKPGASVKVSCKASGYTFTDYSMHWVRQAPGQGLKWMGWINTETGEPTYAQGFTGRFVFSLDTSVSTAYLQISSLKAEDTAVYYCARIPLYYYGSRYWYFDVWGQGTTVTVSS VL: DIQMTQSPSSLSASVGDRVTITCRASENIYRNLAWYQQKPGKAPKLLVYAATNLADGVPSRFSGSGSGTDYTLTISSLQPEDFATYYCQHFWGTPWTFGQGTKVEIK | 4.9% | 100% | 5.2% | 4.7%
